Experimental data reported in IntAct's records for PubMed 17690245.

Key:
ccnt1_human CCNT1 = ccnt1_human CCNT1 (UniProt O60563)
cdk9_human CDK9 = cdk9_human CDK9 (UniProt P50750)

- effect of a mutation on the interaction (ccnt1_human CCNT1): disrupting interaction
- effect of a mutation on the interaction (cdk9_human CDK9): disrupting interaction
Substance: Bromodomain-containing protein 4 (Homo sapiens) (from UniProt O60885-1) R1337P
